Experiment [1] concerns the target SARS-Cov-2 Receptor Binding Domain (RBD) protein (SARS-CoV-2, UniProt P0DTC2 319-541). The experiment can be described thus: SPR (Carterra LSA), scFv captured via anti-V5, RBD as analyte, 1:1 fit.
The target in experiment [2] is SARS-CoV-1 Receptor Binding Domain (RBD) protein (SARS-CoV-1, UniProt P59594 306-527). The experiment can be described thus: SPR (Carterra LSA), scFv captured via anti-V5, RBD as analyte.
In experiment [3] the target is MERS Receptor Binding Domain (RBD) protein (MERS coronavirus, UniProt K9N5Q8 367-606). The experiment is described as above.
In experiment [4] the target is SARS-CoV-2 spike protein (on pseudovirus / virus in the neutralisation assays) (SARS-CoV-2, UniProt P0DTC2 14-1273). The experiment can be described thus: cell-based or functional assay.

The values below come from patent publication US11021531 (CENTIVAX, dated 2021).

B1: COVID19_R01_C08 (scFv, V domains shown)
VH: EVQLVESGGGLVQPGGSLRLSCAASGFSFSSYGMSWVRQAPGKGLEWVSAMNRDGSYIYYADSVKGRFTISRDNSKNTLYLQMNSLRAEDTAVYYCARDRSYYVGYWGQGTLVTVSS
VL: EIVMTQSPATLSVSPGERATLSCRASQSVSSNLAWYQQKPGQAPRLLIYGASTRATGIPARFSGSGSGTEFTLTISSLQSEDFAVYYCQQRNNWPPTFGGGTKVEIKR
notes: also called COVID19_R01_CO8
Usually Kd stands for the free concentration of one partner at which half of the binding sites on the other are occupied at equilibrium, for simple one-to-one binding. A low value points to higher affinity. The koff is the rate constant with which the complex falls apart. What is called kon is the second-order rate constant of association. Regarding B1, in experiment [1], the equilibrium dissociation constant (Kd) was 49.5 nM, the koff amounted to 0.00379 s⁻¹ and the kon was found to be 76600 M⁻¹ s⁻¹.

B2: COVID19_P04_E10 (scFv, V domains shown)
VH: EVQLVESGGGLVQPGGSLRLSCAASGFSFSSYGMSWVRQAPGKGLEWVSAMNRDGSYIYYADSVKGRFTISRDNSKNTLYLQMNSLRAEDTAVYYCARDRSYYVGYWGQGTLVTVSS
VL: EIVMTQSPATLSVSPGERATLSCRASQSVRSNLAWYQQKPGQAPRLLIYGASTRATGIPARFSGSGSGTEFTLTISSLQSEDFAVYYCQQRNNWPPTFGGGTKVEIKR
For the molecule B2, the binding result in experiment [2] is reported as “no binding (tested: 300 nM (highest analyte concentration))”. Besides, the binding result in experiment [3] is given as “no binding (tested: 300 nM (highest analyte concentration))”. In experiment [1], this molecule showed a Kd of 4.4 nM, a koff of 0.00053 s⁻¹ and an on-rate constant (kon) of 120000 M⁻¹ s⁻¹.

B3: COVID19_P04_B10 (scFv, V domains shown)
VH: EVQLVESGGGLVQPGGSLRLSCAASGFRFSDAAIHWVRQAPGKGLEWVSAISGSGGSTYYADSVKGRFTISRDNSKNTLYLQMNSLRAEDTAVYYCARDRSYGIDYWGQGTLVTVSS
VL: not shown
With B3, in experiment [2], the binding result is listed as “no binding (tested: 300 nM (highest analyte concentration))”. Besides, the binding result in experiment [3] is recorded as “no binding (tested: 300 nM (highest analyte concentration))”. For the same molecule, in experiment [1], binding was characterised by a dissociation constant (Kd) of 2.5 nM, the koff worked out at 0.0005 s⁻¹ and the association rate constant (kon) was 200000 M⁻¹ s⁻¹.

B4: COVID19_P04_B03 (scFv, V domains shown)
VH: EVQLVESGGGLVQPGGSLRLSCAASGFTFSNHYMSWVRQAPGKGLEWVSAISGSGGSTYYADSVKGRFTISRDNSKNTLYLQMNSLRAEDTAVYYCARDRSYYLDYWGQGTLVTVSS
VL: EIVMTQSPATLSVSPGERATLSCRASQSIGTYLSWYQQKPGQAPRLLIYGASTRATGIPARFSGSGSGTEFTLTISSLQSEDFAVYYCQQSLSLPVTFGGGTKVEIKR
In the case of B4, the binding result in experiment [2] is “no binding (tested: 300 nM (highest analyte concentration))”. The binding result in experiment [3] is “no binding (tested: 300 nM (highest analyte concentration))”. In experiment [1], the Kd came out at 19.7 nM, the koff stood at 0.0141 s⁻¹ and the on-rate constant (kon) is 716000 M⁻¹ s⁻¹.

B5: COVID19_P04_G03 (scFv, V domains shown)
VH: EVQLVESGGGLVQPGGSLRLSCAASGFTVSSNYMNWVRQAPGKGLEWVSVVYPGGSTYYADSVKGRFTISRDNSKNTLYLQMNSLRAEDTAVYYCARDRSYYLDYWGQGTLVTVSS
VL: not shown
As to B5, the binding result in experiment [2] is recorded as “no binding (tested: 300 nM (highest analyte concentration))”. For the same molecule, the binding result in experiment [3] was “no binding (tested: 300 nM (highest analyte concentration))”. In experiment [1], this molecule yielded a dissociation constant Kd of 7.1 nM, a dissociation rate constant (koff) of 0.00045 s⁻¹ and a kon of 63000 M⁻¹ s⁻¹.

B6: COVID19_R01_B10 (scFv, V domains shown)
VH: EVQLVESGGGLVQPGGSLRLSCAASGFTVSSNYMSWVRQAPGKGLEWVSVIYPGGSTFYADSVKGRFTISRDNSKNTLYLQMNSLRAEDTAVYYCARDRSYYLDYWGQGTLVTVSS
VL: EIVMTQSPATLSVSPGERATLSCRASQSVSSSYLAWYQQKPGQAPRLLIYGASTRATGIPARFSGSGSGTEFTLTISSLQSEDFAVYYCQQASSTPLTFGGGTKVEIKR
In experiment [1], B6 showed a Kd of 30.4 nM, a dissociation rate constant (koff) of 0.00294 s⁻¹ and an on-rate (kon) of 96900 M⁻¹ s⁻¹.

B7: COVID19_P04_G05 (scFv, V domains shown)
VH: EVQLVESGGGLVQPGGSLRLSCAASGLSVTSNYMSWVRQAPGKGLEWVSVIYPGGSTFYADSVKGRFTISRDNSKNTLYLQMNSLRAEDTAVYYCARDRSYYLDYWGQGTLVTVSS
VL: not shown
For the molecule B7, the binding result in experiment [2] is reported as “no binding (tested: 300 nM (highest analyte concentration))”. Further, the binding result in experiment [3] is “no binding (tested: 300 nM (highest analyte concentration))”. In experiment [1], this molecule registered a dissociation constant (Kd) of 0.72 nM, an off-rate (koff) of 5.7e-05 s⁻¹ and a kon of 79000 M⁻¹ s⁻¹.

B8: COVID19_R01_A04 (scFv, V domains shown)
VH: EVQLVESGGGLVQPGGSLRLSCAASGFTFSDHYMSWVRQAPGKGLEWVSAISTSGDSTFYADSVKGRFTISRDNSKNTLYLQMNNLRAEDTAVYYCARDRSYYLDYWGQGTLVTVSS
VL: EIVMTQSPATLSVSPGERATLSCRASQSVRSNLAWYQQKPGQAPRLLIYGASTRATGIPARFSGSGSGTEFTLTISSLQSEDFAVYYCQQFGTSPPGLSFGGGTKVEIKR
Turning to B8, in experiment [1], the Kd is 10.9 nM, the koff stood at 0.012 s⁻¹ and the on-rate constant (kon) worked out at 1.1e+06 M⁻¹ s⁻¹.

B9: COVID19_R01_B01 (scFv, V domains shown)
VH: EVQLVESGGGLVQPGGSLRLSCAASGFTFASHAMSWVRQAPGKGLEWVSGISSDGSITTYADSVKGRFTISRDNSKNTLYLQMNSLRAEDTAVYYCARDRGWYLDYWGQGTLVTVSS
VL: not shown
In experiment [1], B9 registered a dissociation constant Kd of 12.5 nM, a koff of 0.00055 s⁻¹ and an on-rate (kon) of 44000 M⁻¹ s⁻¹.

B10: COVID19_R01_D02 (scFv, V domains shown)
VH: EVQLVESGGGLVQPGGSLRLSCAASGFTFDDYAMHWVRQAPGKGLEWVAIIYEGGSPHYADSVKGRFTISRDNSKNTLYLQMNSLRAEDTAVYYCARDRSGYLDYWGQGTLVTVSS
VL: EIVMTQSPATLSVSPGERATLSCRASQSVSNNLAWYQQKPGQAPRLLIYDASTRATGIPARFSGSGSGTEFTLTISSLQSEDFAVYYCQQYNNWPPTFGGGTKVEIKR
B10: in experiment [4], the “IC50 [µg/mL] plaque” value was under 3 µg/mL and the “IC50 [µg/mL] pseudotyped lenti neutralization” value was determined as 0.62 µg/mL. Besides, in experiment [1], the Kd worked out at 2.8 nM, the koff came out at 0.00058 s⁻¹ and the on-rate (kon) was 210000 M⁻¹ s⁻¹.

B11: COVID19_P04_B09 (scFv, V domains shown)
VH: EVQLVESGGGLVQPGGSLRLSCAASGFTFSNSDMNWVRQAPGKGLEWVSAISGTGDTTEYADSVKGRFTISRDNSKNTLYLQMNSLRAEDTAVYYCARDRSLMLDYWGQGTLVTVSS
VL: EIVMTQSPATLSVSPGERATLSCRASQSVRSNLAWYQQKPGQAPRLLIYGASTRATGIPARFSGSGSGTEFTLTISSLQSEDFAVYYCQQRNNWPPTFGGGTKVEIKR
Consider B11, for which the binding result in experiment [2] is “no binding (tested: 300 nM (highest analyte concentration))”. For the same molecule, the binding result in experiment [3] is recorded as “no binding (tested: 300 nM (highest analyte concentration))”. In experiment [1], this molecule had a dissociation constant (Kd) of 1.4 nM, a koff of 0.00032 s⁻¹ and an association rate constant (kon) of 230000 M⁻¹ s⁻¹.

B12: COVID19_P04_D08 (scFv, V domains shown)
VH: EVQLVESGGGLVQPGGSLRLSCAASGFTFTNYAMTWVRQAPGKGLEWVSTMSNIGGDTYYADSVKGRFTISRDNSKNTLYLQMNSLRAEDTAVYYCARDRRVYLDYWGQGTLVTVSS
VL: DIQMTQSPSSLSASVGDRVTITCRASQSISSYLNWYQQKPGKAPKLLIYAASSLQSGVPSRFSGSGSGTEFTLTISSLQSEDFAVYYCQQYGSSPLTFGGGTKVEIKR
As to B12, in experiment [2], the binding result was “no binding (tested: 300 nM (highest analyte concentration))”. Besides, the binding result in experiment [3] is “no binding (tested: 300 nM (highest analyte concentration))”. For the same molecule, in experiment [1], the affinity, expressed as Kd, was 40.7 nM; the koff is 0.0113 s⁻¹; the kon was 279000 M⁻¹ s⁻¹.
